The labels stand for the following.
T1: human CGRP (human, UniProt P06881 83-119)
T1 peptide (looked up): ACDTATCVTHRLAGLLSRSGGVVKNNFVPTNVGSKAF

T2: rat CGRP (rat, UniProt P01256 83-119)
T2 peptide (looked up): T1 peptide (looked up) with A1S, D3N, N25D, K35E

B1: C28H2L1 (antibody, human IgG1, kappa, V domains shown)
VH: EVQLVQSGAEVKKPGASVKVSCKASGYTFTDYYMNWVRQAPGQRLEWIGDINPNNVVTTYNQKFKGRATLTVDKSASTAYMELSSLRSEDTAVYYCASIIIVPDYFDYWGQGTTVTVSS
VL: DIQMTQSPSSVSASVGDRVTITCKASQNVGSNVAWYQQKPGKSPKALIYSASYRYSGVPSRFSGSGSGTDFTLTISSLQPEDFATYYCQQYNSYPYTFGGGTKVEIKR
B2: C9H8L1 (antibody, human IgG1, kappa, V domains shown)
VH: B1 VH with D50V, N54Y, N55T, V56G, V57R, Q62R, I99L, I100L, V102R, D104H
VL: B1 VL with V11L, S31T, F83V, Y87H, S93F, G100Q, V104L
B3: C21#-CHI (antibody, human IgG1, kappa, V domains shown)
VH: EVQLQQSGPELVKPGASVRISCKASGYTFTDYYMNWVRQSHRKSLEWIGDINPNNGGTNYNQKFKGKATLTVDKSSSTAYMELRSLTSEDSAVYYCASIIIVPNYFDYWGQGTTLTVSS
VL: DIVMTQSQKFMSTSVGDRVSVTCKASQNVDTNVAWFQQRPGQSPKALIYSASYRYSGVPDRFTGSGSGTDFTLTISNVQSEDLADYFCQQYNNYPYTFGGGTKLEIER
notes: chimeric: murine variable regions fused to human constant regions; also called C21#-CH1
B4: C9#-CHI (antibody, human IgG1, kappa, V domains shown)
VH: EVQLQQSGPVLVKPGASVKMSCKASGYTFTDYYMNWVKQSLGKSLEWIGVINPYNGRTTYNRKFKGKATLTVDKSSSTAYMELNSLTSEDSAVYYCASLLIRPHYFDYWGQGTTLTVSS
VL: DIVMTQSQKFMATSVGDRVSVTCKASQNVGTNVAWYQQKPGQSPKALIYSASYRYSVVPDRFTGSGSGTDFTLTIRNVQSEDLAEYHCQQYNFYPYTFGAGTKLELKR
notes: chimeric: murine variable regions fused to human constant regions; also called C9#-CH1
B5: C28#-CHI (antibody, human IgG1, kappa, V domains shown)
VH: B3 VH with R19K, K23E, R38K, R42G, G57V, N59T, N104D
VL: B3 VL with Q6H, D30G, T31S, F36Y, Q38E, R39K, D85E, N93S, E107K
notes: chimeric: murine variable regions fused to human constant regions; also called C28#-CH1
B6: C1#-CHI (antibody, human IgG1, kappa, V domains shown)
VH: QVQLQQSGAELVRPGSSVKISCKASGYTFSTSWMNWVKQRPGQGLEWIGQIYPGDGYTNYNGKFRGKATLTADKSSSTAYMQLSSLTSEDSAVYFCAGDYEALWGQGTTLTVSS
VL: DVVMTQTPLSLPVSLGDQASISCRSSQSLVHSNGNTYFHWYLQRPGQSPKLLIYEVSNRFSGVPDRFSGSGSGTDFTLKISRVEAEDLGVYFCSQSTHVPFTFGSGTKLEIKR
notes: chimeric: murine variable regions fused to human constant regions; also called C1#-CH1
B7: C1H3L1 (antibody, human IgG1, kappa, V domains shown)
VH: EVQLVQSGAEVKKPGSSVKVSCKASGYTFSTSWMNWVRQAPGQGLEWMGQIYPGDGYTNYNVKFRGRVTITADKSTSTAYMELSSLRSEDTAVYYCAGDYEALWGQGTTVTVSS
VL: B6 VL with V2I, S14T, L15P, D17E, Q18P, R44K, K50Q, L88V, F92Y, S105Q
B8: PL-13 (bispecific antibody)
chain 1: not shown
chain 2: DIVLTQSPASLAVSPGQRATITCRASESVSIHGTHLMHWYQQKPGQPPKLLIYAASKLESGVPARFSGSGSGTDFTLTINPVEAEDTANYYCQQSFEDPLTFGQGTKLEIKRTVASGIPPKIECLPIDISIDEGKVLTVASCFTGEPTPEVTWSTGGRKIHSQEQGRFHIENTDDSTTLTIKDVQKQDGGLYTLTLRNEFGSDSATVNIHIRSI
chain 3: not shown
chain 4: not shown
B9: PL-19 (bispecific antibody)
chain 1: not shown
chain 2: B8 chain 2
chain 3: not shown
chain 4: not shown
B10: PL-18 (bispecific antibody)
chain 1: not shown
chain 2: B8 chain 2 with V136C, C142A
chain 3: not shown
chain 4: not shown
B11: PL-14 (bispecific antibody)
chain 1: not shown
chain 2: B8 chain 2 with C142A
chain 3: not shown
chain 4: not shown
B12: PL-15 (bispecific antibody)
chain 1: not shown
chain 2: B8 chain 2 with V136C, C142A
chain 3: not shown
chain 4: not shown
B13: PL-17 (bispecific antibody)
chain 1: not shown
chain 2: B8 chain 2 with C142A
chain 3: not shown
chain 4: not shown
B14: HJ-3 (bispecific antibody)
chain 1: not shown
chain 2: DIQMTQSPSSVSASVGDRVTITCRASQDIANYLSWYQQKPGKSPKLLIYGTSNLEVGVPSRFSGSRSGTDFTLTISSLQPEDFATYYCLQDKEFPRTFGGGTKVEIKGGGGSSGAPRFLTRPLAFVVSVGKDATLSSQIVGNPTPQVSWEKDKQPVTAGARFRLAQDGDLYRLKILDLQLSDSGQYVSRARNAIGEAFACLGLQVDAEA
chain 3: EVQLVQSGAEVKKPGSSVKVSCKASGYTFSNYLIEWVRQAPGQGLEWIGVIDPGVGDTNYNENFKGRATLTADKSTSTAYIELSSLRSEDTAVYYCAREDNTGTAFDYWGQGTTVTVSSASTKGPSVFPLAPSSKSTSGGTAALGCLVKDYFPEPVTVSWNSGALTSGVHTFPAVLQSSGLYSLSSVVTVPSSSLGTQTYICNVNHKPSNTKVDKKVEPKSCDKTHTCPPCPAPEAAGGPSVFLFPPKPKDTLMISRTPEVTCVVVDVSHEDPEVKFNWYVDGVEVHNAKTKPREEQYNSTYRVVSVLTVLHQDWLNGKEYKCKVSNKALPAPIEKTISKAKGQPREPQVCTLPPSREEMTKNQVSLSCAVKGFYPSDIAVEWESNGQPENNYKTTPPVLDSDGSFFLVSKLTVDKSRWQQGNVFSCSVMHEALHNHYTQKSLSLSPGKDYKDDDDK
chain 4: SIVMTQTPLSLSVTPGQPASISCKASQSVSSDVTWYLQKPGQSPQLLIYYVSEHYTGVPDRFSGSGYGTDFTLKISRVEAEDVGVYYCQQHHRFPLTFGQGTKLEIKRTVAAPSVFIFPPSDEQLKSGTASVVCLLNNFYPREAKVQWKVDNALQSGNSQESVTEQDSKDSTYSLSSTLTLSKADYEKHKVYACEVTHQGLSSPVTKSFNRGEC

Residue numbers refer to the chain shown, from its start.

In general, EC50 refers to the concentration giving half of the maximal effect. High values mean lower potency in that assay, low ones higher potency in that assay.

Sequence of hPDL1 (Q9NZQ7 19-238 limits assumed): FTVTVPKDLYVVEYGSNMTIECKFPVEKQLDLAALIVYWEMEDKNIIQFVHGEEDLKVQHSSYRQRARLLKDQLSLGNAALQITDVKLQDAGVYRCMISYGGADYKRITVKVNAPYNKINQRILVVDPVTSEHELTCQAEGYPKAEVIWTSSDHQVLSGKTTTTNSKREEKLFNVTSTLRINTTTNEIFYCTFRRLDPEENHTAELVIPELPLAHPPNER

In the first assay the target is T1, human CGRP. Nature of the assay: ELISA, coated CGRP. On the procedure:
(§1) In this test example, the abilities of the chimeric antibodies and humanized antibodies of C1 #, C9 #, C21 #, and C28 #to bind to human CGRP and rat CGRP were assessed using ELISAs. Plates were coated with […] human CGRP and rat CGRP, respectively, and blocked, and the antibodies, serially diluted, were then added. The plates were incubated for 1 h and washed, and a horseradish peroxidase-labeled anti-human Fc secondary antibody was then added. After incubation, color development was performed. […] The plates were incubated for 1 h and washed, and the antibodies, serially diluted, were then added. The plates were incubated for 1 h and washed, and a horseradish peroxidase-labeled streptavidin secondary antibody was then added. After incubation, color development was performed.
A general note: An ELISA detects its analyte on a solid surface through an enzyme-linked reagent.
In turn, B1 registered an EC50 of 1.33 nM.

In turn, B2 registered an EC50 of 1.03 nM.

With B3, the EC50 worked out at 3.79 nM. This EC50 lies about 3.7-fold higher than the previous one.

Molecule B4 gave an EC50 of 1.58 nM. This EC50 lies about 2.4-fold lower than the previous one.

On to B5, for which it took 1.29 nM to reach a half-maximal effect (EC50). The EC50 values of the last two molecules are within 1.5-fold of each other.

B6 registered an EC50 of 1.36 nM.

B7 showed an EC50 of 1.89 nM.

The target in a further assay is T2, rat CGRP. Nature of the assay: ELISA, coated CGRP. On the procedure: as §1
Take B1: the EC50 came to 4.04 nM.

Take B2: the EC50 was found to be 2.8 nM.

For B3, the EC50 came out at 10.1 nM.

Consider B4, for which it took 3.11 nM to reach a half-maximal effect (EC50).

For B5, the EC50 amounted to 7.4 nM.

For B6, the EC50 stood at 1.81 nM. This EC50 lies about 4.1-fold lower than the previous one.

As for B7, the EC50 was 1.95 nM.

In the next assay the target is CGRP. Briefly: cell-based or functional assay.
As for B1, the “IC50, inhibition of cAMP production in SK-N-MC cells” value (shortened to “IC50, inhibition of cAMP production”) was found to be 2.55 nM.

Turning to B2, the “IC50, inhibition of cAMP production” value turned out to be 12.2 nM.

B3: the “IC50, inhibition of cAMP production” value worked out at 1.28 nM.

In the case of B4, the “IC50, inhibition of cAMP production” value turned out to be 21 nM.

In the case of B5, the “IC50, inhibition of cAMP production” value came to 1.21 nM.

Turning to B6, the “IC50, inhibition of cAMP production” value was 7.96 nM.

In the case of B7, the “IC50, inhibition of cAMP production” value was 9.77 nM.

A further assay addresses hPDL1 (human, UniProt Q9NZQ7 19-238). Briefly: ELISA of Test Example 4 of WO2021139758.
B8 had a 50% effective concentration (EC50) of 0.5 nM.

The molecule B9 returned an EC50 of 1.6 nM.

Take B10: it took 1.6 nM to reach a half-maximal effect (EC50).

B11 had an EC50 of 1.3 nM.

In turn, B12 returned an EC50 of 1.4 nM.

The molecule B13 yielded an EC50 of 1.4 nM. That is a single-digit nanomolar value.

The target of another assay is hCTLA4 (human, UniProt P16410 36-161). Nature of the assay: ELISA of Test Example 4 of WO2021139758.
Sequence of hCTLA4 (P16410 36-161 limits assumed): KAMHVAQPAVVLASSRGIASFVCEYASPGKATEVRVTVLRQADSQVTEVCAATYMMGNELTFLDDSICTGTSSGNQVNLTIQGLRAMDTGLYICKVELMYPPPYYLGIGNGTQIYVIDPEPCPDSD
As for B8, the EC50 came to 4.4 nM.

Take B9: the response was half-maximal at 6.5 nM (EC50).

As for B10, the EC50 came to 6.7 nM.

Take B11: the EC50 worked out at 6 nM. This EC50 and that of the molecule before are within 1.5-fold of each other.

As to B12, the EC50 was found to be 3.2 nM.

With B13, the EC50 is 6.2 nM.

The next assay has as its target hIL5 (human, UniProt P05113 20-134). Nature of the assay: method of Test Example 4 of WO2021139758.
In the case of B14, the EC50 turned out to be 17.4 nM. In other words, the double-digit nanomolar range.

In a further assay the target is hTSLP (human, UniProt Q969D9 29-159). Nature of the assay: method of Test Example 4 of WO2021139758.
The molecule B14 showed an EC50 of 3.23 nM.

For the origin of these results see patent publication US20260176358A1 (JIANGSU HENGRUI PHARMACEUTICALS, published 2026).
